Read-outs that look alike come from different tables or passages of the source.
B1: L6.P4A3.10 (antibody, V domains shown)
VH: QVQLVQSGAEVKKPGSSVKVSCKAPGGTFSSSAISWVRQAPGQGLEWMGGIIPILDITHYAQKFQGRVTITADKSTSTAFMELSSLRSEDTAVYYCALRNQWDLLVYWGQGTLVTVSS
VL: EIVLTQSPGTLSLSPGERATLSCRASQSVSSSYLAWYQQKPGQAPRLLIYGAESRATGIPDRFSGSGSGTDFTLTISRLEPEDFAVYYCQHYGSSVWTFGQGTKLEIK
B2: L12.cP08D07 (antibody, V domains shown)
VH: QVQLQESGPGLVKPSETLSLTCTVSGGSISSSSYYWGWIRQPPGKGLEWIGSIYYSGSTYYNPSLKSRVTISVDTSKNQFSLKLSSVTAADTAVYYCARQGDCSTTSCAYDYWGQGTLVTVSS
VL: SYELTQPPSVSVSPGQTARITCSGDALPKQYAYWYQQKPGQAPVLVIYKDSERPSGIPERFSGSSSGTTATLTISGVQAEDEADYYCQSADSSGTYLVVFGGGTKLAVL
notes: human IgG1

Key:
human insulin = human insulin (human, UniProt P01308 25-54; P01308 90-110); assay: polyreactivity ELISA
[1] = target: T1, SARS-CoV-2 spike on pseudovirus or live virus (USA-WA1/2020, WT) (SARS-CoV-2, UniProt P0DTC2 14-1273); assay: cell-based or functional assay
[2] = target: T2, SARS-CoV-1 spike on pseudovirus (SARS-CoV-1, UniProt P59594 14-1255); assay: cell-based or functional assay
SARS-CoV-1 RBD (RBD-1) = SARS-CoV-1 RBD (RBD-1) (SARS-CoV-1); assay: ELISA
SARS-CoV-2 RBD (RBD-2) [3] = target: SARS-CoV-2 RBD (RBD-2) (SARS-CoV-2); assay: ELISA
SARS-CoV-2 RBD (RBD-2) [4] = target: SARS-CoV-2 RBD (RBD-2) (SARS-CoV-2); assay: SPR, Fc-captured IgG
[5] = target: T3, SARS-CoV-2 RBD (residue 332-527) (SARS-CoV-2, UniProt P0DTC2 332-527); assay: ELISA on truncated S constructs
T3 construct: range 332-527

SARS-CoV-2 RBD (RBD-2) [6] = target: SARS-CoV-2 RBD (RBD-2) (SARS-CoV-2); assay: flow, HeLa-ACE2, mAb:RBD=2:1
SARS-CoV-2 RBD (RBD-2) [7] = target: SARS-CoV-2 RBD (RBD-2) (SARS-CoV-2); assay: flow, HeLa-ACE2, mAb:RBD=4:1
[8] = target: T1, SARS-CoV-2 spike on pseudovirus or live …; assay: cell-based or functional assay; remark: listed apart in the source
[9] = target: T2, SARS-CoV-1 spike on pseudovirus; assay: cell-based or functional assay; remark: listed apart in the source

Chain of human insulin (P01308 25-54 limits assumed, chain 1 of 2): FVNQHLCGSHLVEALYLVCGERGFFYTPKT
Chain of human insulin (P01308 90-110 limits assumed, chain 2 of 2): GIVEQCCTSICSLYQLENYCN

| Binder | binding result (human insulin) | PSV neutralization IC50 [1] | PSV neutralization IC50 [2] | EC50 (SARS-CoV-1 RBD (RBD-1)) | EC50 (SARS-CoV-2 RBD (RBD-2) [3]) | Kd (SARS-CoV-2 RBD (RBD-2) [4]) | koff (SARS-CoV-2 RBD (RBD-2) [4]) | kon (SARS-CoV-2 RBD (RBD-2) [4]) | binding result [5] | % inhibition of RBD binding to hACE2 (SARS-CoV-2 RBD (RBD-2) [6]) | MFI (RBD binding to cell surface) (SARS-CoV-2 RBD (RBD-2) [6]) | % inhibition of RBD binding to hACE2 (SARS-CoV-2 RBD (RBD-2) [7]) | MFI (RBD binding to cell surface) (SARS-CoV-2 RBD (RBD-2) [7]) | Maximum Plateau of Neutralization [8] | PSV neutralization IC50 [8] | PSV neutralization IC50 [9] |
| --- | --- | --- | --- | --- | --- | --- | --- | --- | --- | --- | --- | --- | --- | --- | --- | --- |
| B1 | no binding | – | – | – | – | – | – | – | – | – | – | – | – | – | – | – |
| B2 | – | 1.81 µg/mL | > 50 µg/mL | > 50 µg/mL | > 50 µg/mL | 26.8 nM | 0.017 s⁻¹ | 636000 M⁻¹ s⁻¹ | no binding | 3% | 10800 | -3.9% | 11600 | 64% | 21.9 µg/mL | > 50 µg/mL |

Source: patent publication US20230357364A1 (INTERNATIONAL AIDS VACCINE INITIATIVE, published 2023)
